Among the data in patent US20240299546A1 are Kd values, retold here.

Test [1] has as its target HLA-A1-MAGE-A3 pMHC (human). Put plainly: SPR, biotinylated HLA-A1-MAGE-A3 on streptavidin chip, soluble TCR flowed. On the technique in general: SPR reads the build-up and loss of mass on a sensor chip optically.
Test [2] has as its target HLA-A1-TITIN pMHC (human). Briefly: SPR, biotinylated HLA-A1-TITIN on streptavidin chip, soluble TCR flowed.

B1: A3A TCR (TCR, V domains shown)
V domain 1: KQEVTQIPAALSVPEGENLVLNCSFTDSAIYNLQWFRQDPGKGLTSLLLVRPYQREQTSGRLNASLDKSSGRSTLYIAASQPGDSATYLCAVRPGGAGSYQLTFGKGTKLSVIP
V domain 2: KAGVTQTPRYLIKTRGQQVTLSCSPISGHRSVSWYQQTPGQGLQFLFEYFSETQRNKGNFPGRFSGRQFSNSRSEMNVSTLELGDSALYLCASSPNMADEQYFGPGTRLTVTE
Turning to B1, the Kd (commonly a measure of binding affinity in units of concentration) in test [1] came to 1.24 µM; in test [2], 7.7 µM.
